Changes are numbered by the printed parent chain.

B1: dBBAT091-P253 (antibody, human IgG1, lambda, V domains shown)
VH: EVQLVESGGDLVKPGGGLRLSCAASGFTFSSYTMNWVRQAPGKGLEWVSSISSRSNYIDYADSVKGRFTISRDNAKNSLYLQMNSLRAEDTAVYYCARFGKKNDMNWVFDYWGQGTLVTVSS
VL: QSALTQPPSASGSPGQTVTISCTGTSTDVGFYNYVSWYQQHPGKAPKLMIYEGSKRPSGVPDRFSGSKSGNTASLTVSGLQAEDEADYFCSSYEYTESVLFGGGTKLTVLG
B2: dBBAT042-P253 (antibody, human IgG1, lambda, V domains shown)
VH: B1 VH with Y32H, V48I, I58K, D59S, F99Y, K101H, D104M, M105H
VL: B1 VL with T27S, G53V, S92T, E94R, T96D, E97Q, S98N, L100A
B3: dBBAT122-P253 (antibody, human IgG1, lambda, V domains shown)
VH: B1 VH with S31T, I58K, D59F, K101G, D104N
VL: B1 VL with T27S, G53V, T96I
B4: dBBAT037-P253 (antibody, human IgG1, lambda, V domains shown)
VH: B1 VH with S31G, K101L, D104S, M105L
VL: B1 VL with G53T, E94S, Y95G, T96A, E97S, S98I, V99L
B5: dBBAT112-P253 (antibody, human IgG1, lambda, V domains shown)
VH: B1 VH with S31T, I58K, D59F, K101V, D104N
VL: B1 VL with T27S, G53V, T96I

T2 sequence (chain, as listed by the source limits assumed): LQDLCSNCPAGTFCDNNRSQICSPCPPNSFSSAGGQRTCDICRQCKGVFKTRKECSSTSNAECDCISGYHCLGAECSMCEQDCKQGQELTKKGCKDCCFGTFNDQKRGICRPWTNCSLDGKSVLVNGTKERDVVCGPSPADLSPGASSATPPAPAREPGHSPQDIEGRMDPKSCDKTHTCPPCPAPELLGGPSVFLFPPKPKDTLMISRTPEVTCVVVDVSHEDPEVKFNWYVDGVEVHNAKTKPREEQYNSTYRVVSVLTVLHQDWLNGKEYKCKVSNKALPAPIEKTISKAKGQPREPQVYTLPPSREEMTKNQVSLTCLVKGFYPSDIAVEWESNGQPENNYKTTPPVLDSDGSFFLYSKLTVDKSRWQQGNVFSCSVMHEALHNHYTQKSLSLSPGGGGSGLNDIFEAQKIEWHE

In one test the target is T1, hCD137 (FXa digested) (human, UniProt Q07011 24-186).
T1 construct: Factor Xa digestion and Protein A removed the Fc; also called human CD137 extracellular domain
T1 sequence (Q07011 other isoform, or with tags, fused parts or gaps limits assumed): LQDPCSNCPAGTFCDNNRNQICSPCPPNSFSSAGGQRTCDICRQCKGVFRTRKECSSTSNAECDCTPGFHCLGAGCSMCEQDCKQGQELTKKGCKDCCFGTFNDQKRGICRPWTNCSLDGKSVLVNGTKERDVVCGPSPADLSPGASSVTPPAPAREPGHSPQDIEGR
The experiment in a line: SPR, 1 mM AMP. The method, then:
(§1) Biacore T200 (GE Healthcare) was used to analyze the interaction of antigen-antibody reaction between the anti-CD137 antibodies and hCD137 (FXa digest). […] For the running buffer, 20 mM ACES, 150 mM NaCl, 2 mM MgCl₂, 0.05% Tween20 (pH 7.4) was used, and 10 mM Glycine-HCl (pH 1.5) was used as the regeneration solution.
(§2) After capturing of the anti-CD137 antibodies suspended in TBS, 500 nM hCD137 (FXa digest) was injected into each flow cell at a flow rate of 10 μL/min for three minutes. This three-minute period served as the binding phase for hCD137 (FXa digest), and after the binding phase ended, the two-minute period of switching to the running buffer served as the dissociation phase for hCD137 (FXa digest). After completion of the dissociation phase, the regenerative solution was injected at a flow rate of 30 μl/min for 30 seconds. The above was the cycle for measuring the binding activity of anti-CD137 antibodies. The binding amount of hCD137 (FXa digest) that interacted with the anti-CD137 antibody in the binding phase was adjusted by the amount of antibody captured. Biacore T200 Evaluation Software Version 2.0 was used to display the binding amount (RU) per capture ligand 1 RU, and values of the antibody capture amount (amount of antibody captured) and antigen-binding amount were obtained. Since the binding amount of antigen reflects the binding activity, it can be said that dependence on a small molecule is recognized when the value in the presence of the small molecule (ATP, ADP or AMP) is higher than the value without the small molecule. In particular, the larger the difference is, the higher the dependence is on a small molecule.
On the technique in general: Surface plasmon resonance follows binding to a sensor surface in real time, without labels.
B1 had a binding amount of 2.9 RU.

Take B2: the binding amount came out at 7.8 RU.

The molecule B3 came in with a binding amount of 5.7 RU.

B4 came in with a binding amount of 21.7 RU.

In the case of B5, the binding amount came to 6.5 RU.

Another test addresses T1, hCD137 (FXa digested). As to the kind of experiment: SPR, 1 mM ATP. The method, then: as §1, §2
Regarding B1, the binding amount turned out to be 6.2 RU.

For the molecule B2, the binding amount came to 11.7 RU.

As to B3, the binding amount amounted to 11.5 RU.

Consider B4, for which the binding amount turned out to be 27.5 RU.

For the molecule B5, the binding amount is 12.6 RU.

In a further test the target is T1, hCD137 (FXa digested). The experiment in a line: SPR, 10 uM ADP. The method, then:
as §1, §2
B1 showed a binding amount of 20 RU.

B2: the binding amount worked out at 19.1 RU.

In turn, B3 yielded a binding amount of 19.2 RU.

With B4, the binding amount is 62.9 RU.

With B5, the binding amount was determined as 27.4 RU.

The target in a further test is T1, hCD137 (FXa digested). As to the kind of experiment: SPR, 100 uM ADP. Here is the method:
as §1, §2
Regarding B1, the binding amount came to 33 RU.

In turn, B2 came in with a binding amount of 58.7 RU.

As for B3, the binding amount was found to be 55.5 RU.

For B4, the binding amount worked out at 72.1 RU.

As to B5, the binding amount was found to be 43 RU.

The target of a further test is T1, hCD137 (FXa digested). The experiment in a line: SPR, 100 uM AMP. The method, then:
as §1, §2
As to B1, the binding amount amounted to 3.3 RU.

In turn, B2 gave a binding amount of 4.7 RU.

B3 showed a binding amount of 4.1 RU.

On to B4, for which the binding amount was determined as 13.8 RU.

Molecule B5 yielded a binding amount of 4.8 RU.

The next test addresses T1, hCD137 (FXa digested). As to the kind of experiment: SPR, 100 uM ATP. Here is the method: as §1, §2
The molecule B1 yielded a binding amount of 3 RU.

B2 registered a binding amount of 4.3 RU.

For the molecule B3, the binding amount was found to be 4.7 RU.

As to B4, the binding amount stood at 15.9 RU.

Take B5: the binding amount came to 6.3 RU.

The next test concerns the target T1, hCD137 (FXa digested). The experiment in a line: SPR, no small molecule. Here is the method: as §1, §2
Molecule B1 showed a binding amount of 1.5 RU.

Turning to B2, the binding amount was determined as 2.9 RU.

On to B3, for which the binding amount came out at 3.3 RU.

For B4, the binding amount worked out at 3.8 RU.

With B5, the binding amount came out at 3.7 RU.

The next test addresses T2, biotinylated Fc-fused monkey CD137 (monkey, biotin on the AviTag).
T2 construct: also called cyCD137-Fc-BAP
As to the kind of experiment: ELISA, 1 mM ADP, 10 ug/mL. The arrangement: reference not given here. The method, then: (§3) The obtained antibodies were evaluated for binding to monkey CD137 by ELISA. The cyCD137-Fc-BAP prepared in Reference Example 1 was immobilized on Streptawell microtiter plates. After the unbound antigen was removed from the plates by washing each well of the plates with the wash buffer, the wells were blocked with 150 μL of a blocking buffer (TBS with 2% BSA) for 1 hour or more. The blocking buffer was removed from each well, and 100 μL of the purified antibodies diluted in TBS with a final concentration of 1 mM ADP, or TBS with a final concentration 1 mM ADP was added to each well. The plate to which the antibody was added was shaken at 600 rpm for 1 hour. The AP-conjugated anti-human lambda antibodies (BETHYL) diluted in TBS with a final concentration of 1 mM ADP were added to each well after washing with a wash buffer (TBS with 0.1% Tween20) containing a final concentration of 1 mM ADP. After incubation for one hour and washing with a wash buffer containing a final concentration of 1 mM […], BluePhos phosphate substrate (KPL) was added. Color development was measured by absorbance at 600 nm. Samples with a concentration-dependent increase in the absorbance ratio can be said to be bound to monkey CD137.
For orientation: In an ELISA, binding on a coated surface is turned into a signal by an enzyme label.
On to B1, for which the absorbance ratio worked out at 15.1.

As for B3, the absorbance ratio was 31.9.

Take B4: the absorbance ratio was determined as 32.5.

In the case of B5, the absorbance ratio is 19.8.

A further test addresses T2, biotinylated Fc-fused monkey CD137. As to the kind of experiment: ELISA, 1 mM ADP, 2.5 ug/mL. Details: reference not given here. Here is the method: as §3
Take B1: the absorbance ratio was 5.5.

With B3, the absorbance ratio stood at 16.7.

Regarding B4, the absorbance ratio amounted to 12.7.

As to B5, the absorbance ratio was 8.1.

A further test has the same target. As to the kind of experiment: ELISA, 1 mM ADP, 0.010 ug/mL. The arrangement: reference not given here. Here is the method: as §3
For B1, the absorbance ratio was 0.6.

In the case of B3, the absorbance ratio came out at 0.9.

As for B4, the absorbance ratio was 1.1.

Consider B5, for which the absorbance ratio is 0.6.

Another test has the same target. The experiment in a line: ELISA, 1 mM ADP, 0.039 ug/mL. The arrangement: reference not given here. The method, then:
as §3
B1: the absorbance ratio turned out to be 0.5.

As to B3, the absorbance ratio came out at 1.

As to B4, the absorbance ratio is 1.3.

With B5, the absorbance ratio was found to be 0.6.

A further test shares this target. As to the kind of experiment: ELISA, 1 mM ADP, 0.156 ug/mL. Details: reference not given here. Here is the method: as §3
B1: the absorbance ratio was found to be 0.7.

Turning to B3, the absorbance ratio stood at 1.9.

In the case of B4, the absorbance ratio stood at 1.9.

With B5, the absorbance ratio worked out at 1.

Another test shares this target. As to the kind of experiment: ELISA, 1 mM ADP, 0.625 ug/mL. The arrangement: reference not given here. Here is the method: as §3
As for B1, the absorbance ratio was found to be 1.7.

As for B3, the absorbance ratio worked out at 5.7.

As for B4, the absorbance ratio was 4.6.

Take B5: the absorbance ratio amounted to 2.8.

The record behind these values is patent publication US20230272099A1 (Chugai, published 2023).
